Assay results reported in patent publication US20240092918A1 (Novartis, published 2024).

Key:
[1] = molecular target: T1, Human CCR7 (human, UniProt P32248 25-378); assay: cell-based or functional assay
T1 sequence: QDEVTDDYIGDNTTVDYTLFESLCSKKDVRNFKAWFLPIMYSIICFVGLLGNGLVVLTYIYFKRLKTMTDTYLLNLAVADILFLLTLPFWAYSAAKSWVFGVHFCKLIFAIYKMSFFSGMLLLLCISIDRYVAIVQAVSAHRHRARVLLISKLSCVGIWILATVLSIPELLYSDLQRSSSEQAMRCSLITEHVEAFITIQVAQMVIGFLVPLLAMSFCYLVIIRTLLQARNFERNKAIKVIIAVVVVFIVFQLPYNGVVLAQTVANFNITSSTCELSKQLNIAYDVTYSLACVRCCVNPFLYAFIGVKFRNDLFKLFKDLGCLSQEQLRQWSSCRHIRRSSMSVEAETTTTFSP

[2] = molecular target: T1, Human CCR7; assay: FACS binding assay
[3] = molecular target: T1, Human CCR7; assay: cell-based or functional assay; remark: listed apart in the source
[4] = molecular target: T1, Human CCR7; assay: cell-based or functional assay; remark: listed apart in the source

B1: 506E15 humanized CysMab (Fc Wild Type) (antibody, human IgG1, V domains shown)
VH: EVQLVESGGGLVKPGGSLRLSCAASGFTFSSYAMSWIRQAPGKGLEWVATISSGGSFTYYPDSVKGRFTISRDNAKNSLYLQMNSLRAEDTAVYYCARRASTVVGTDFDVWGQGTTVTVSS
VL: DIQMTQSPSSLSASVGDRVTLTCRASQDIGSSLNWLQQKPGKAIKRLIYATSSLDSGVPSRFSGSRSGTDYTLTISSLQPEDFVVYYCLQYASSPPTFGGGTKLEIK
- ADCC activity; IC50 (nM); surrogate ADCC reporter assay, JVM2 target cells and Jurkat-V158 effector cells [1]: 0.054 nM

B2: 674J13 non-humanized CysMab (antibody, human IgG1, kappa, V domains shown)
VH: DVQLQESGPDLVKPSQSLSLTCTVTGYSITSGYSWHWIRQFPGNKLEWMAHIHSSGSTNYNPSLKSRISIIRDTSKNLFFLQLNSVTTEDTATYYCARGGVQAFAYWGQGTLVTVSA
VL: QIVLTQSPAIMSASPGEKVTMTCSASSSVIYMHWYQQKSGTSPKRWIYDTSKLASGVPARFSGSGSGTSYSLTISSMEAEDAATYYCQQWSSNPLTFGAGTTLELKR
- ADCC activity; IC50 (nM); surrogate ADCC reporter assay, JVM2 target cells and Jurkat-V158 effector cells [1]: 1.09 nM

B3: 674J13.CysMab.DAPA.AURIX2 (antibody, human IgG1, kappa, V domains shown)
VH: DVQLQESGPGLVKPSQTLSLTCTVSGYSITSGYSWHWIRQHPGKGLEWMAHIHSSGSTNYNPSLKSRITISRDTSKNQFSLKLSSVTAADTAVYYCARGGVQAFAYWGQGTLVTVSS
VL: EIVLTQSPATLSASPGERVTMSCSASSSVIYMHWYQQKPGQAPRRWIYDTSKLASGVPARFSGSGSGTDYTLTISSMEPEDAAVYYCQQWSSNPLTFGQGTKLEIKR
modifications: DAR LC 0.03; AURIX2 on the engineered cysteines; DAR HC 3.93
notes: also called 674J13.DAPA.AURIX2
- geometric mean fluorescence intensity, difference from the unconjugated antibody [2]: ≤ 20%
- ADC activity in cell viability assay; IC50 (nM); CML-T1 cells (~29,000 CCR7 receptors) [3]: 3.78 nM
- ADC activity in cell viability assay; IC50 (nM); DEL cells (~100,000 CCR7 receptors) [3]: 0.242 nM
- ADC activity in cell viability assay; IC50 (nM); KE97 cells (~100,000 CCR7 receptors) [3]: 0.102 nM
- ADC activity in cell viability assay; IC50 (nM); SR786 cells (~28,000 CCR7 receptors) [3]: 2.74 nM

B4: 684E12 non-humanized CysMab (antibody, human IgG1, kappa, V domains shown)
VH: EVHLVESGGGLVKPGGSLKLSCAASGFTFSNFAMSWVRQTPEKRLEWVATISTGGTYTYYPDSVKGRFTISRDNAKKTLYLQMSSLRSEDTAMYYCTRRGYDGVDKWGQGTTLTVSS
VL: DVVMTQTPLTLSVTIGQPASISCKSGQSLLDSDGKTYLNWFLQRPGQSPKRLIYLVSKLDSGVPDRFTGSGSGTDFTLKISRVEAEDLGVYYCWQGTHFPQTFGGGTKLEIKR
- ADCC activity; IC50 (nM); surrogate ADCC reporter assay, JVM2 target cells and Jurkat-V158 effector cells [1]: 2.63 nM

B5: 684E12.SMCC.DM1 (antibody, V domains shown)
VH: EVHLVESGGGLVKPGGSLKLSCAASGFTFSNFAMSWVRQTPEKRLEWVATISTGGTYTYYPDSVKGRFTISRDNAKKTLYLQMSSLRSEDTAMYYCTRRGYDGVDKWGQGTTLTVSS
VL: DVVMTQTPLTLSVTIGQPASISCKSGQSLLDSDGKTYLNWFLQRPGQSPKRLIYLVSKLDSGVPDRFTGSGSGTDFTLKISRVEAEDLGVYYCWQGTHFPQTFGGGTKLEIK
modifications: SMCC-DM1 on lysines of the antibody, sites not defined; DAR 2.6
notes: also called parental 684E12.SMCC.DM1 (DAR2.6)
- geometric mean fluorescence intensity, difference from the unconjugated antibody [2]: ≤ 20%

B6: 506E15 Parental (antibody, V domains shown)
VH: EVMLVESGGGLVKPGGSLKLSCAASGFTFSSYAMSWIRQTPEKRLEWVATISSGGSFTYYPDSVKGRFTISRDNVKNTLYLQMSSLRSEDTAMYYCARRASTVVGTDFDVWGAGTTVTVSS
VL: DIQMTQSPSSLSASLGERVSLTCRASQDIGSSLNWLQQEPDGTIKRLIYATSSLDSGVPKRFSGSRSGSDYSLTISSLESEDFVVYYCLQYASSPPTFGGGTKLEIK
- 506E15 IC50 (nM); ADCC reporter assay, ALL-SIL cells (6,200 CCR7 receptors) [4]: 0.008 nM
- 506E15 IC50 (nM); ADCC reporter assay, CMLT-1 cells (29,000 CCR7 receptors) [4]: 0.011 nM
- 506E15 IC50 (nM); ADCC reporter assay, DEL cells (62,000 CCR7 receptors) [4]: 0.074 nM
- 506E15 IC50 (nM); ADCC reporter assay, DND-41 cells (1,700 CCR7 receptors) [4]: 0.002 nM
- 506E15 IC50 (nM); ADCC reporter assay, JVM2 cells (66,500 CCR7 receptors) [4]: 0.046 nM
- 506E15 IC50 (nM); ADCC reporter assay, Jurkat V158 cells (3,400 CCR7 receptors) [4]: 0.004 nM
- 506E15 IC50 (nM); ADCC reporter assay, MOTN-1 cells (64,600 CCR7 receptors) [4]: 0.077 nM
- 506E15 IC50 (nM); ADCC reporter assay, PEER cells (8,700 CCR7 receptors) [4]: 0.038 nM
- 506E15 IC50 (nM); ADCC reporter assay, SR786 cells (27,800 CCR7 receptors) [4]: 0.011 nM

B7: 506E15 non-humanized CysMab (antibody, human IgG1, kappa, V domains shown)
VH: EVMLVESGGGLVKPGGSLKLSCAASGFTFSSYAMSWIRQTPEKRLEWVATISSGGSFTYYPDSVKGRFTISRDNVKNTLYLQMSSLRSEDTAMYYCARRASTVVGTDFDVWGAGTTVTVSS
VL: DIQMTQSPSSLSASLGERVSLTCRASQDIGSSLNWLQQEPDGTIKRLIYATSSLDSGVPKRFSGSRSGSDYSLTISSLESEDFVVYYCLQYASSPPTFGGGTKLEIKR
- ADCC activity; IC50 (nM); surrogate ADCC reporter assay, JVM2 target cells and Jurkat-V158 effector cells [1]: 0.131 nM
